Assay results taken from article PMC5986150.

How the values were obtained:
[1] = target: 12-ADA CaM (Drosophila melanogaster calmodulin engineered with an N-terminal N-myristoyl transferase recognition peptide and labelled with 12-azidododecanoic acid) (Drosophila melanogaster) (UniProt P62152); assay: pull-down; purified 12-ADA CaM (1, 2 or 5 mg mL^-1) conjugated to DBCO-Sepharose; clarified E. coli lysate with CaN (25 mM Tris pH 7.5, 3 mM MgCl2, 100 mM NaCl, 2 mM CaCl2) incubated with the resin at 4°C for 45 minutes - 1 hr; washes with 2 mM CaCl2, one with 1 M NaCl; eluted with 1 mM EGTA; semi-quantitative SDS-PAGE with Coomassie
[2] = target: Calmodulin of Calmodulin Sepharose 4B (GE Healthcare Life Sciences) (UniProt P62157); assay: pull-down; commercial Calmodulin Sepharose 4B (GE); clarified E. coli lysate with CaN (2 mM CaCl2) incubated with the resin at 4°C, in parallel with the 12-ADA CaM resins; eluted with 1 mM EGTA; semi-quantitative SDS-PAGE with Coomassie
[3] = target: 12-ADA CaM (Drosophila melanogaster calmodulin engineered with an N-terminal N-myristoyl transferase recognition peptide and labelled with 12-azidododecanoic acid) (Drosophila melanogaster) (UniProt P62152); assay: pull-down; 12-ADA CaM conjugated to DBCO-Sepharose directly from clarified lysate, resin washed; clarified E. coli lysate with CaN (25 mM Tris pH 7.5, 3 mM MgCl2, 100 mM NaCl, 2 mM CaCl2) incubated with the resin at 4°C for 45 minutes - 1 hr; washes with 2 mM CaCl2, one with 1 M NaCl; eluted with 1 mM EGTA; semi-quantitative SDS-PAGE with Coomassie

**Q.** How did the avg. amount of CaN purified from the resin [1] turn out when “Human calcineurin (CaN), α and β subunits (from UniProt Q08209 1-521; P63098 1-170) (complex)” was run?
**A.** Its avg. amount of CaN purified from the resin is 0.1 mg.

**Q.** And the avg. amount of CaN purified from the resin [2]?
**A.** Its avg. amount of CaN purified from the resin is 0.2 mg.

**Q.** And the avg. amount of CaN purified from the resin [3]?
**A.** The avg. amount of CaN purified from the resin was 0.6 mg.
